The source of these data is patent publication US20160067347A1, “APJ RECEPTOR AGONISTS AND USES THEREOF” (AMGEN INC., priority 2012, published 2016).

The target of the assay is T1, rat APJ receptor (Rattus norvegicus, UniProt Q9JHG3).
T1 construct: expressed in transfected cells; CHO is named only for the cAMP assay
T1 sequence (Q9JHG3 1-377): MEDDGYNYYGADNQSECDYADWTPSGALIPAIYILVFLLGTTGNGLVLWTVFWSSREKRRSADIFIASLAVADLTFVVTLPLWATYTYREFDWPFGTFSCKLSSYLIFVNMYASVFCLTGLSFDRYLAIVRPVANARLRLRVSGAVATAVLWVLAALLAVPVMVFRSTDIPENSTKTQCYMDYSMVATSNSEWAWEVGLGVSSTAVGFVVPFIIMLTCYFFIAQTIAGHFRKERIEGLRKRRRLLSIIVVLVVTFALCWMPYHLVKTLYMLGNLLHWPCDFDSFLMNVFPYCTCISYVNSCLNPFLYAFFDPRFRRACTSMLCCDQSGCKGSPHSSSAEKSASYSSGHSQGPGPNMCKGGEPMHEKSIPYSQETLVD
In words: [35S]GTPγS assay, membranes from stable cell lines, rat APJ. In kind it is biochemical. Conditions: for in vitro potency relative to endogenous pyr apelin 13 (SEQ ID NO: 128) / in vitro potency, mono vs bis vs tetrakis 20 kDa PEG peptides: FIG. 11, in vitro rat GTPγS assay; for potency relative to monopeptide (SEQ ID NO: 494): FIG. 13, PEGylated bis-peptides on low molecular weight monodispersed PEG. How it is done:
To assay for GTP, membranes were prepared from stable cell lines and used to determine the efficacy/potency of the modified peptides. The optimal experimental conditions for the concentrations of GDP, MgCl2 and NaCl in the assay buffer were initially determined. The membranes were incubated with modified peptides in the assay buffer. The reaction was initiated by addition of [^35S] GTPγS in the absence or presence of peptides and incubated at room temperature for 90 min. […] Bound [^35S] GTPγS was separated from free radiolabel by filtration. The filter bound radioactivity was determined by liquid scintillation counting.
A series of PEGylated peptides were prepared and screened in vitro to explore the effects of PEG size and peptide valency on potency and efficacy in the GTPγS assay. In the assay 20 kDA and 40 kDA PEG were compared (FIG. 10).
Additionally mono- and multivalent bis, and tetrakis-peptide conjugated PEGS were prepared to explore peptide valency. […]
(In general: Binding of GTPγS marks nucleotide exchange on a G protein.)

*1 amine or outer side, *2 acyl side, *3 side chain or, on linkers, in order; H or OH if unused. Primed or numbered codes have the meaning given here. Where no end group is shown, it is not given here. [ ]: non-standard residue; d: D form. Atz = (S)-2-amino-3-(1H-1,2,3-triazol-4-yl)propanoyl residue, substituent (PEG) on triazole N1, O=C([C@H](Cc1cn([*:3])nn1)N[*:1])[*:2]; Oic = O=C(O)[C@@H]1C[C@@H]2CCCC[C@@H]2N1; Phe(4-Cl) = N[C@@H](Cc1ccc(Cl)cc1)C(=O)O; hArg = N=C(N)NCCCC[C@H](N)C(=O)O; Cha = N[C@@H](CC1CCCCC1)C(=O)O; 40K‑mPEG = 40 kDa methoxy-PEG; PEG11′ = not defined here; PEG23′ = not defined here; PEG35′ = not defined here; PEG47′ = not defined here; Nle = CCCC[C@H](N)C(=O)O

Take “SEQ ID NO: 129: 20 kDa PEG-mono(Atz-KFRRQRP[hArg][Cha]SHKG[Oic][Nle]P[4-Cl—F]) (XKFRRQRPRLSHKGPMPF; not fully specified; 20 kDa PEG, Atz linker; non-natural residues; source: /note="N-term may or may not be modified by conjugation linker, an acyl group, an aryl group, an alkyl group, NPeg11, a PEG derivative or other serum half-life prolonging group"; MOD_RES (1)..(1): Atz)”: the “in vitro potency relative to endogenous pyr apelin 13 (SEQ ID NO: 128)” value is recorded as “significantly more potent” and the “in vitro potency, mono vs bis vs tetrakis 20 kDa PEG peptides” value is “approximately equipotent”.
With “SEQ ID NO: 130: 20 kDa PEG-bis(Atz-KFRRQRP[hArg][Cha]SHKG[Oic][Nle]P[4-Cl—F]) (KFRRQRP[hArg][Cha]SHKG[Oic][Nle]P[Phe(4-Cl)]; not fully specified (N-terminus); also: 20 kDa PEG carries two peptide copies)”, the “in vitro potency relative to endogenous pyr apelin 13 (SEQ ID NO: 128)” value is “significantly more potent” and the “in vitro potency, mono vs bis vs tetrakis 20 kDa PEG peptides” value is “approximately equipotent”.
The matching figures for “SEQ ID NO: 131: 20 kDa PEG-tetrakis(Atz-KFRRQRP[hArg][Cha]SHKG[Oic][Nle]P[4-Cl—F]) (KFRRQRP[hArg][Cha]SHKG[Oic][Nle]P[Phe(4-Cl)]; not fully specified (N-terminus); also: 20 kDa PEG carries four peptide copies)”: “significantly more potent” and “approximately equipotent”.
As to “SEQ ID NO: 133: PEGylated bis-peptide, the shortest PEG conjugate (~0.6 kDa PEG) ([PEG11′][Atz]KFRRQRP[hArg][Cha]SHKG[Oic][Nle]P[Phe(4-Cl)]; not fully specified (residue 1); numbers in words are those of the source; also: bis-peptide: two peptide chains joined through PEG11 on Atz)”, the “potency relative to monopeptide (SEQ ID NO: 494)” value is “reduced potency”.
As to “SEQ ID NO: 134: PEGylated bis-peptide, 1 kDa PEG conjugate ([PEG23′][Atz]KFRRQRP[hArg][Cha]SHKG[Oic][Nle]P[Phe(4-Cl)]; not fully specified (residue 1); numbers in words are those of the source; also: bis-peptide: two peptide chains joined through PEG23 on Atz)”, the “potency relative to monopeptide (SEQ ID NO: 494)” value is “increased potency”.
Still for that read-out and setting: the value for “SEQ ID NO: 135: PEGylated bis-peptide, 1.7 kDa PEG conjugate ([PEG35′][Atz]KFRRQRP[hArg][Cha]SHKG[Oic][Nle]P[Phe(4-Cl)]; not fully specified (residue 1); numbers in words are those of the source; also: bis-peptide: two peptide chains joined through PEG35 on Atz)” was “increased potency”; that for “SEQ ID NO: 136: PEGylated bis-peptide, 2.2 kDa PEG conjugate ([PEG47′][Atz]KFRRQRP[hArg][Cha]SHKG[Oic][Nle]P[Phe(4-Cl)]; not fully specified (residue 1); numbers in words are those of the source; also: bis-peptide: two peptide chains joined through PEG47 on Atz)” was “increased potency”.
With “SEQ ID NO: 474: 40 Kda PEGylated peptide compared with the 20 kDa PEGylated peptide SEQ ID NO: 24 ({40K‑mPEG-Thiopropionyl}-KFRRQRP[hArg][Cha]SHKG[Oic][Nle]P[Phe(4-Cl)]-OH)”, the “Emax relative to the 20 kDa PEGylated peptide” value (FIG. 10) is 84 % of 20 kDa.
